Earlier results on 1 substance are cited in paper PMC5855614.

For the series, the target named is Galectin-3 (Homo sapiens) (UniProt P17931).
Galectin-3 (Homo sapiens), sequence (P17931 2-250): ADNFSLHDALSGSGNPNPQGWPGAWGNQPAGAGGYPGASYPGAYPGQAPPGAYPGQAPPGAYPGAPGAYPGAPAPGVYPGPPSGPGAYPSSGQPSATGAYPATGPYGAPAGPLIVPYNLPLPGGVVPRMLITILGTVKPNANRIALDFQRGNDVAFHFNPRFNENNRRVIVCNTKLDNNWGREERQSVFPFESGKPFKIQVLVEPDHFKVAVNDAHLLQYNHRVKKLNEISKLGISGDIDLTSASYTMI

With G3-C12, the Kd was 72 nM.
